In article doi:10.1101/2024.12.05.626941:
Blank lines part the entries; values can stand above or below the substance they belong to.

Columns and labels:
Assay in all cases: SEC
[1] = biological target: Zea mays adenosine kinase 2 (ZmADK2) (Zea mays)
[2] = biological target: Zea mays adenosine kinase 1 (ZmADK1) (Zea mays)
[3] = biological target: Zea mays adenosine kinase 3 (ZmADK3) (Zea mays)
[4] = biological target: Physcomitrella patens adenosine kinase 2 (PpADK2) (Physcomitrella patens)

stoichiometry N [1]: 2
Substance: Zea mays adenosine kinase 2 (ZmADK2) (enzyme)

stoichiometry N [2]: 2
Substance: Zea mays adenosine kinase 1 (ZmADK1) (enzyme)

stoichiometry N [3]: 2
Substance: Zea mays adenosine kinase 3 (ZmADK3) (enzyme)

stoichiometry N [4]: 2
Substance: Physcomitrella patens adenosine kinase 2 (PpADK2) (enzyme)
